Assay results published in the supplement of paper PMC10567573.

B1: CCND1 (parent)
chain: PEAEENKQIIRKHAQTFVALCATD
B2: ZNF649 (parent)
chain: DECEKAYFYMSCLVKHKRIHSREK

Variants of: B1
Assay: protein stability index of a GFP-peptide fusion (GPS, HEK-293T) (PSI 1-6); higher = more stable
Conditions: c terminus: a fixed tail appended
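Further: lentivirally expressed fusions sorted by FACS into six bins by GFP to DsRed ratio, PSI derived from sequencing read proportions per bin multiplied by bin number.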

Protein stability index, by site and new letter:
A3: I 2.93; S 2.46; N 3.15; H 2.02; R 3.26; Q 2.86; G 2.8; Y 2.81; C 2.31; M 2.81; P 2.43; F 2.71; T 2.15; D 3.27; W 2.85; E 3.02; K 2.8; L 2.89; V 3
E4: F 1.92; Q 2.39; L 2.37; S 2.21; P 3.27; R 2.33; T 2.1; M 2.23; D 2.64; H 2.67; N 2.36; K 2.04; Y 2.08; C 3.62; G 2.42; W 1.95; I 2.2; A 2.47; V 2.38
I9: A 3.74
E2: G 2.92; C 2.13; D 2.75; Q 2.53; W 1.81; H 2.34; K 2.73; S 2.4; V 2.8; A 2.54; R 1.87; T 2.29; P 2.83; M 2.98; L 2.08; N 2.32; Y 2.69; F 2.14; I 2.27
N6: E 2.92; T 2; I 2.26; R 2.22; Y 3.05; G 2.35; H 3.04; K 2.38; W 2.42; S 2.12; P 2.12; C 1.93; M 2.39; L 1.88; V 1.85; D 2.79; F 2.17; Q 2.59; A 2.14
Q8: D 3.54; H 3.22; N 3.13; R 3.07; F 2.24; P 1.95; V 2.07; L 2.45; W 2.05; K 2.33; T 1.7; Y 2.55; S 2.58; A 2.77; C 2.24; E 3.48; I 2.19; M 2.85; G 2.85
E5: T 1.69; K 2.17; L 1.91; F 2.12; N 2.25; C 1.86; D 2.93; Q 2.33; A 2.05; M 2.99; W 2.04; G 2.47; H 2.24; R 1.93; Y 2.21; V 2.55; I 2.05; S 1.79; P 2.33
K7: H 3.36; I 2.6; E 3.84; Y 2.62; L 2.95; F 2.71; Q 2.98; W 2.61; D 3.69; V 2.54; P 3.19; A 3.37; S 2.53; G 3.26; R 3.25; M 3.17; T 2.64; C 2.92; N 3.78
P1: I 2.36; S 2.34; C 1.97; Q 2.78; R 2.59; G 2.78; T 2.18; K 2.07; H 3.19; Y 3.2; E 3.45; F 2.44; D 3.29; V 2.66; W 3.02; L 2.76; A 3.14; N 2.52; M 2.68

Variants of: B2
Assay: as above
Conditions: c terminus: a fixed tail appended

Protein stability index of substitutions, site by site:
R22: G 2.19; K 3.08; S 2.08; C 2.36; V 2.32; H 2.39; L 1.43; I 2.24; Y 2.16; W 1.71; T 2.38; F 2.09; E 2.89; M 2.22; P 2.89; Q 2.28; A 2.54; N 2.82; D 2.8
K17: G 2.42; T 2.27; P 2.35; F 2.83; S 2.19; Y 2.14; H 2.05; R 2.39; W 2; N 2.45; I 1.68; L 1.91; D 2.85; C 1.83; Q 2.3; E 2.54; A 2.94; M 1.61; V 2.19
K24: D 3.02; E 3.45; F 1.85; I 2.12; T 1.98; L 1.75; A 2.1; W 1.92; N 2.54; M 1.97; R 2.42; Q 2.56; V 2.05; Y 2.05; C 1.55; H 2.72; S 3.13; P 2.46; G 2.31
H16: A 2.51; P 2.92; F 1.79; V 1.61; C 1.76; Q 2.64; D 3.25; M 1.98; I 1.69; T 2.56; R 2.82; G 3.24; E 3.53; W 2.29; L 1.84; N 2.75; K 2.65; S 3.06; Y 2.11
E23: Q 2.99; S 2.23; F 2.15; W 2.23; Y 2.17; M 1.8; A 3.48; H 2.36; I 2.42; T 2.48; N 2.38; D 2.81; R 3.04; V 2.2; L 2.99; K 2.7; C 3.15; G 2.62; P 2.1
H20: W 2.4; Y 2.59; E 3.6; I 2.09; R 2.59; L 2.48; T 2.12; D 3.33; V 2.24; Q 2.6; S 2.37; P 3.15; F 2.88; G 2.55; M 2.1; K 2.6; N 2.57; A 2.22; C 2.92
K15: Q 2.3; R 2.12; T 2.16; N 3.16; P 2.02; W 1.53; M 1.9; V 1.75; Y 1.92; S 2.34
I19: C 3.2; A 3.26; H 3.15; M 2.66; V 3.18; D 3.59; Y 2.34; N 2.97; R 3.19; E 3.93; K 2.9; Q 3.42; T 2.98; S 3.36; P 3.3; F 2.53; W 2.81; G 3.27; L 2.4
R18: E 2.59; F 2.4; W 2.34; I 2.08; L 1.73; T 2.61; G 2.72; S 2.56; D 2.87; H 2.62; Y 2.52; C 2.32; N 3.21; M 2.53; V 2.36; A 2.53; Q 2.56; P 2.48; K 2.79
S21: C 3.33; I 2.61; L 2.14; E 2.85; Y 1.87; P 2.08; A 2.48; K 2.77; W 1.61; F 1.91; T 2.15; V 2.65; H 2.53; M 2.13; D 2.61; N 2.98; R 2.58; G 2.29; Q 2.95
